Experimental data: publication PMC6212441, “Direct visualization of DNA baton pass between replication factors bound to PCNA” (Scientific Reports, 2018)

Legend:
[1] = molecular target: T1, P. furiosus proliferating cell nuclear antigen (PCNA) (Pyrococcus furiosus), O73947; assay: negative-stain electron microscopy, single particle analysis; FEN (D175A), PCNA and double flap DNA (Substrate-A) mixed in 50 mM Tris-HCl pH 8.0, 50 mM NaCl, 37 °C 10 min; complex isolated on Superdex 200 without crosslinking; 2% uranyl acetate stain; map at 19 Å with crystal structures fitted; settings: remark: other sources report otherwise
T1 chain: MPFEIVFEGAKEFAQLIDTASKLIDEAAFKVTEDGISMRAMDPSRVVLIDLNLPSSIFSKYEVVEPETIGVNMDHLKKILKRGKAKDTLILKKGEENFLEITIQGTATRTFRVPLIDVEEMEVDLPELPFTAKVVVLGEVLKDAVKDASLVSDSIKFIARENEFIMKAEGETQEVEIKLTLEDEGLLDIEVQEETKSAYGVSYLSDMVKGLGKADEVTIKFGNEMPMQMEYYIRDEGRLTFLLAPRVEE

[2] = molecular target: T2, P. furiosus DNA ligase (Lig) (Pyrococcus furiosus, UniProt P56709 1-561); assay: negative-stain electron microscopy, single particle analysis; wild type FEN, Lig, PCNA and nonligatable nicked DNA (Substrate-B) mixed in 20 mM MES pH 6.5, 50 mM NaCl, 0.1 mM ATP, 5 mM MgCl2, 50 °C 10 min; complex isolated on Superdex 200 without crosslinking; 2% uranyl acetate stain; two classes, maps at 16 Å and 20 Å with crystal structures fitted; settings: both partners purified
T2 construct: DNA ligase (Lig) of Pyrococcus furiosus, with DBD, AdD and OBD domains and the PIP-box motif 103-QKSFF-107
T2 sequence: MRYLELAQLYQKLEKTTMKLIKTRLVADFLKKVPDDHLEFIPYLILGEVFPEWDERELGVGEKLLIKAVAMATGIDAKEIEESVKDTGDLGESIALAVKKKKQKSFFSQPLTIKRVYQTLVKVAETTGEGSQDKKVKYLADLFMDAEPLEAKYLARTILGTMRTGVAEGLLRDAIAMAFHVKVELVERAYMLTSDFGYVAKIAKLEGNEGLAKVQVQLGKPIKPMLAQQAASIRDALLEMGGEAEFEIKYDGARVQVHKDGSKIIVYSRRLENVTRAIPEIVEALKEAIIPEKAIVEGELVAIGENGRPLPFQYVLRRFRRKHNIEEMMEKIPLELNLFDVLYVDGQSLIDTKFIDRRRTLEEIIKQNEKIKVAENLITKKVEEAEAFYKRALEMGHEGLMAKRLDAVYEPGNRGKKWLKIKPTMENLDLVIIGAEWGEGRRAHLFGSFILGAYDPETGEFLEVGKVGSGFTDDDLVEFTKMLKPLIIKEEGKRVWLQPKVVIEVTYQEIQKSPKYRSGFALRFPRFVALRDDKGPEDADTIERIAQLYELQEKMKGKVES

B1: P. furiosus proliferating cell nuclear antigen (PCNA) (natural protein, Pyrococcus furiosus)
chain: MPFEIVFEGAKEFAQLIDTASKLIDEAAFKVTEDGISMRAMDPSRVVLIDLNLPSSIFSKYEVVEPETIGVNMDHLKKILKRGKAKDTLILKKGEENFLEITIQGTATRTFRVPLIDVEEMEVDLPELPFTAKVVVLGEVLKDAVKDASLVSDSIKFIARENEFIMKAEGETQEVEIKLTLEDEGLLDIEVQEETKSAYGVSYLSDMVKGLGKADEVTIKFGNEMPMQMEYYIRDEGRLTFLLAPRVEE
notes: proliferating cell nuclear antigen (PCNA) of Pyrococcus furiosus, forms a homotrimeric ring; also called PCNA clamp; PCNA ring
stoichiometry N [1]: 3 | binding result [2]: binds
